Test results as given in the supplement of paper PMC10065799, “High-throughput profiling of sequence recognition by tyrosine kinases and SH2 domains using bacterial peptide display” (eLife, 2023).

Tests used:
AncSZ = assay: phosphorylation enrichment, bacterial display (enrichment ratio); higher = better substrate or ligand; peptides without Tyr show the background
EPHB1 = EPHB1 (UniProt P54762); assay: as above
EPHB2 = EPHB2 (UniProt P29323); assay: as above
FGFR1 = FGFR1 (UniProt P11362); assay: as above
FGFR1, sequence (P11362 whole entry, looked up): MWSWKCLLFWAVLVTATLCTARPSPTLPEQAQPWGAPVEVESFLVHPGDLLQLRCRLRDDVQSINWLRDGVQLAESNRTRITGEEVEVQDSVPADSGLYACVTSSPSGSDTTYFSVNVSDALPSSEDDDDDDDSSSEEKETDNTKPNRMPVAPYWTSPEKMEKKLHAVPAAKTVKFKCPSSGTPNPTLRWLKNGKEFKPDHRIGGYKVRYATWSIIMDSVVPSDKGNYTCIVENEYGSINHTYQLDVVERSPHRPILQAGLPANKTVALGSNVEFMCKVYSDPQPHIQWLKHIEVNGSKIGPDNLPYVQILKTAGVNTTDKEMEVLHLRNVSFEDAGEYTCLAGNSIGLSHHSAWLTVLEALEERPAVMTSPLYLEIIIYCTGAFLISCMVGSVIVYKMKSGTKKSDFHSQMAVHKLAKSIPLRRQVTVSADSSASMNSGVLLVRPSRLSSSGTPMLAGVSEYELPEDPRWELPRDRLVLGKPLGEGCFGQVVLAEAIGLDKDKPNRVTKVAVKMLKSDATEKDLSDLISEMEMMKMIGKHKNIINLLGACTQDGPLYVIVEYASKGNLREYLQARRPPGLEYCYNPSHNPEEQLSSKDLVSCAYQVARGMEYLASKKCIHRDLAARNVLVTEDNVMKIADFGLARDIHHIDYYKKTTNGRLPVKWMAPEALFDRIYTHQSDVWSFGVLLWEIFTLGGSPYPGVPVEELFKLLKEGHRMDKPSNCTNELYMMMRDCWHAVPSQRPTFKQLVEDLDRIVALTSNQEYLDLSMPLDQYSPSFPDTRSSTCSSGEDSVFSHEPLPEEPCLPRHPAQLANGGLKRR

FGFR3 = FGFR3 (UniProt P22607); assay: as above
FGFR3, sequence (P22607 whole entry, looked up): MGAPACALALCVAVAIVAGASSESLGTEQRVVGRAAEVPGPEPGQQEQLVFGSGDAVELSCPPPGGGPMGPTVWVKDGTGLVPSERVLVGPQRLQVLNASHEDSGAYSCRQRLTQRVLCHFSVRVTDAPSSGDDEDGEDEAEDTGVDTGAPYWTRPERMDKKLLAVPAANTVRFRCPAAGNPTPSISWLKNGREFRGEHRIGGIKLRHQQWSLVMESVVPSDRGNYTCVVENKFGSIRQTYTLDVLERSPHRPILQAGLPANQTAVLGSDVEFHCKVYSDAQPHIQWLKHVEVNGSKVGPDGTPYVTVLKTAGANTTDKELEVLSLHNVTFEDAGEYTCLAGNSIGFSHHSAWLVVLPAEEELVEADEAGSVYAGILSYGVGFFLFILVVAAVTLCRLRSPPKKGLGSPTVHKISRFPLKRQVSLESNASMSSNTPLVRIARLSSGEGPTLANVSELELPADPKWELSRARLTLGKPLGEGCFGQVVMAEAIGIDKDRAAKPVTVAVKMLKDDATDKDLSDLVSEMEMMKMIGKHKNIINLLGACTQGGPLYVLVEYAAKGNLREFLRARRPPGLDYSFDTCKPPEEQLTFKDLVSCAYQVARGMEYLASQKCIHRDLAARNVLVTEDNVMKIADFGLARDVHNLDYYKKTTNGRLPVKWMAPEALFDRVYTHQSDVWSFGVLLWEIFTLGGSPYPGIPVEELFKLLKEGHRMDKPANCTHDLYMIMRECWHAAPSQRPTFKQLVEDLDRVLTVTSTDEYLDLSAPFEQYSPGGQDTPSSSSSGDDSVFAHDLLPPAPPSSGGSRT

Fer (mouse) = assay: as above
Fes = Fes (UniProt P07332); assay: as above
Fyn = Fyn (UniProt P06241); assay: as above
Hck = Hck (UniProt P08631); assay: as above
Jak2 = Jak2 (UniProt O60674); assay: as above
Jak2, sequence (O60674 whole entry, looked up): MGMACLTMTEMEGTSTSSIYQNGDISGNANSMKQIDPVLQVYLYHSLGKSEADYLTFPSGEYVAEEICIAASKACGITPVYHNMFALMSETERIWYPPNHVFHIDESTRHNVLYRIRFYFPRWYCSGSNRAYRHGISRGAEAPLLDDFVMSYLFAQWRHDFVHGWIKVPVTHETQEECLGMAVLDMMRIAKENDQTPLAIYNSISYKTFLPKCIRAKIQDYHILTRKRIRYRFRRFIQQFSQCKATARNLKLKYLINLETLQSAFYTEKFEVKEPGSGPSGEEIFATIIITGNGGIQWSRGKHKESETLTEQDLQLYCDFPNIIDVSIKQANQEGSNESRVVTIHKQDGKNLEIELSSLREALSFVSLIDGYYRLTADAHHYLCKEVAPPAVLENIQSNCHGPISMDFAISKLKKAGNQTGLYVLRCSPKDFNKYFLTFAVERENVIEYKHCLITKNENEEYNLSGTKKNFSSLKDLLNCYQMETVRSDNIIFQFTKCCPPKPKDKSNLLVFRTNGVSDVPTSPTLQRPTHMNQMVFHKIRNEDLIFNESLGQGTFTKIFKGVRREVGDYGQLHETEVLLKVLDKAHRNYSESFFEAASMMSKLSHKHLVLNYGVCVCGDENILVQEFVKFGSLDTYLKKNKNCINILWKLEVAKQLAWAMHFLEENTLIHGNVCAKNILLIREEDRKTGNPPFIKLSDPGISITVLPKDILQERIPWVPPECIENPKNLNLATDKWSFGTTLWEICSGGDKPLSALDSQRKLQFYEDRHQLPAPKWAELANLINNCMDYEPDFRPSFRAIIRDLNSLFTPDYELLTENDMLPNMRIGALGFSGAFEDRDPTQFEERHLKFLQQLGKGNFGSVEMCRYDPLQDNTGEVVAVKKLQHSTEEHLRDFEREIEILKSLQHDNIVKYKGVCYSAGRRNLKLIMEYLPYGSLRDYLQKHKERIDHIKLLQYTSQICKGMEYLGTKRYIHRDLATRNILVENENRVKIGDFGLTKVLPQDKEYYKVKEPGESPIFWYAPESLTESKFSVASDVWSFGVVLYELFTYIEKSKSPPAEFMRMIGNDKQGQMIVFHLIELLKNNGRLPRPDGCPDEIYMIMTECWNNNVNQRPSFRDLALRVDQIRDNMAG

MERTK = MERTK (UniProt Q12866); assay: as above
MERTK, sequence (Q12866 whole entry, looked up): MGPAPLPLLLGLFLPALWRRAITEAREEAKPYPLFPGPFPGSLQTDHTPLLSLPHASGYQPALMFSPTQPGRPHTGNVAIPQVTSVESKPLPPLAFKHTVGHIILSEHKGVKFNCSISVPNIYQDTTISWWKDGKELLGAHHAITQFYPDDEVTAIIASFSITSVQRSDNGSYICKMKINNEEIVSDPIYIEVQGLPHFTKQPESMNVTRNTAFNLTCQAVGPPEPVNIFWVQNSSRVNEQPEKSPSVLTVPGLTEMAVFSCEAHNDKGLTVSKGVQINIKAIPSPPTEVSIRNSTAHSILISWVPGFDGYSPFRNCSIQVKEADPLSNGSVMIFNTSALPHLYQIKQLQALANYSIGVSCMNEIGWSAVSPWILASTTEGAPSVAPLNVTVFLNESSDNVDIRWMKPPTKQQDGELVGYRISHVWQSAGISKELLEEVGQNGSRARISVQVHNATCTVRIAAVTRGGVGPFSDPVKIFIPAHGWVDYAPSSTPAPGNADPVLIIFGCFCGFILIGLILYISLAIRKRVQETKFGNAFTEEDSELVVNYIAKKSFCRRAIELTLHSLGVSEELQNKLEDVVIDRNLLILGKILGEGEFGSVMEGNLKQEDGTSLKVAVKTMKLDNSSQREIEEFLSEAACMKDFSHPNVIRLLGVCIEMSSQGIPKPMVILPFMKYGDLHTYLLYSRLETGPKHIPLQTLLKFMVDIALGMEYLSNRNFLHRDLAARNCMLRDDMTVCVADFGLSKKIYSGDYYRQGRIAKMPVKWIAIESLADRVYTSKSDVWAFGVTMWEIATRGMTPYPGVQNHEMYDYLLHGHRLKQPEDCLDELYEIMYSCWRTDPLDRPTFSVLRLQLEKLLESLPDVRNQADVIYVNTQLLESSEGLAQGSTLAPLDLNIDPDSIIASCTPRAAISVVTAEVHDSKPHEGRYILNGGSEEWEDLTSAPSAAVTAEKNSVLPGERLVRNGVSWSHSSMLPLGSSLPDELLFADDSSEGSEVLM

c-Abl (mouse) = assay: as above
c-Src = assay: as above
Grb2 SH2 = Grb2 SH2 (UniProt P62993); assay: SH2 binding enrichment of the phosphorylated peptide, bacterial display (enrichment ratio); higher = better substrate or ligand; peptides without Tyr show the background
SHP2-C SH2 = assay: as above
c-Src SH2 = assay: as above
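Wherever SH2 binding enrichment of the phosphorylated peptide, bacterial display is given: peptide library displayed on the E. coli surface as eCPX fusions, selected cells deep-sequenced, score is each peptide's frequency after selection divided by its frequency in the input.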
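Wherever phosphorylation enrichment, bacterial display is given: 11-residue human phosphosite peptides and single-mutation variants displayed on the E. coli surface, counted by deep sequencing, each peptide's frequency after selection divided by its frequency in the unselected input library; frequency after pTyr selection over input frequency; kinase dosed for 20-30% of maximal phosphorylation in three min.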

EPHB1, sequence (P54762 whole entry, looked up): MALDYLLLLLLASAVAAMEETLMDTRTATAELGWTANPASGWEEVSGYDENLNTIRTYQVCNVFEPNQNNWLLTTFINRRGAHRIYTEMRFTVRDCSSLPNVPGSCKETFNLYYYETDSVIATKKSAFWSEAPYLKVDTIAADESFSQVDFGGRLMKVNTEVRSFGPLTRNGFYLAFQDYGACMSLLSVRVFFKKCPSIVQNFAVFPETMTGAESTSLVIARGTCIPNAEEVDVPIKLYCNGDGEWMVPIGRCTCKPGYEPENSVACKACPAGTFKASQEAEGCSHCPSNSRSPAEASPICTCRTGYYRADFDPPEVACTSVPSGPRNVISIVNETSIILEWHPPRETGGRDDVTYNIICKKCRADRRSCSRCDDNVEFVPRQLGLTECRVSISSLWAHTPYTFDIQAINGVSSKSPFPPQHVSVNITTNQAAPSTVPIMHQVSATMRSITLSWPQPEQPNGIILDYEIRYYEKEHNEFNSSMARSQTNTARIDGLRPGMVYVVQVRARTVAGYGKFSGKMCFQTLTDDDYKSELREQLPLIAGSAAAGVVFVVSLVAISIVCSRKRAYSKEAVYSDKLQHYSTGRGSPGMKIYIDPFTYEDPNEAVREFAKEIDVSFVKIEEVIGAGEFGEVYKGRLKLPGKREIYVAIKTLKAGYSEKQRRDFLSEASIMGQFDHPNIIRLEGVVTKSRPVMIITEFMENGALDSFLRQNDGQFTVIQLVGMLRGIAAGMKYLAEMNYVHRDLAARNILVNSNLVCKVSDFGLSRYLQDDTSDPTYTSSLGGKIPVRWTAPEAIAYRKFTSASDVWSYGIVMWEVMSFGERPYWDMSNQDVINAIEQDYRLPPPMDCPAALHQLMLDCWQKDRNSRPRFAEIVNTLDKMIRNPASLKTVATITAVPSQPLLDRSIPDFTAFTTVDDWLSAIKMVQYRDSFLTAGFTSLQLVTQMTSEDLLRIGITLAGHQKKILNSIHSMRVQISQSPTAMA

Sequence	SH2 binding enrichment (Grb2 SH2)	SH2 binding enrichment (SHP2-C SH2)	SH2 binding enrichment (c-Src SH2)	phosphorylation enrichment (AncSZ)	phosphorylation enrichment (EPHB1)	phosphorylation enrichment (EPHB2)	phosphorylation enrichment (FGFR1)	phosphorylation enrichment (FGFR3)	phosphorylation enrichment (Fer (mouse))	phosphorylation enrichment (Fes)	phosphorylation enrichment (Fyn)	phosphorylation enrichment (Hck)	phosphorylation enrichment (Jak2)	phosphorylation enrichment (MERTK)	phosphorylation enrichment (c-Abl (mouse))	phosphorylation enrichment (c-Src)
NYNPNYCFAGK [ALK_Y1096_D1091N]	0.868	0.878	0.55	1.26	3.98	1.27	0.563	0.642	0.597	0.879	0.57	0.433	0.856	1.1	0.803	0.564
DSIRDYEDGTE [CLNS1A_Y214_M218T]	0.829	0.67	0.577	1.55	0.784	0.565	0.511	0.988	0.766	1.58	0.602	0.57	1.35	0.959	1.02	1.1
DNPAKYFILEN [DPP10_Y512_S517N]	0.659	0.636	0.828	1.03	0.59	0.456	0.557	0.617	0.531	1.2	0.459	0.392	1.41	0.509	0.935	0.495
GRVLGYGAFGK [FLT4_Y853]	1.28	0.851	0.556	0.431	0.364	0.354	0.348	0.474	0.371	0.57	0.446	0.427	0.662	0.339	0.434	0.41
SVSNNYIQTLG [CTNND1_Y174]	0.846	0.803	0.638	0.606	0.491	0.426	0.476	0.585	0.451	0.658	0.432	0.417	0.508	0.621	0.637	0.445
QSSALYEDHFL [ASS1_Y83_R86H_YF]	0.809	1.13	0.48	1.07	5.92	4.17	0.654	0.46	17.9	1.47	1.36	1.57	0.898	2.51	1.04	2.12
RFLKDYGEFEV [GINS1_Y156_C152Y_YF]	1.26	0.749	0.43	1.04	0.497	0.569	0.582	0.877	0.63	1.39	0.85	0.695	1.13	0.778	0.835	1.07
RVLHNYLVWCV [ECEL1_Y400_R404C]	0.921	0.901	0.643	1.25	1.02	0.752	0.773	1.02	0.647	1.5	0.535	0.611	1.42	0.631	0.933	0.561
PDSVDYRKKGY [CTSK_Y121]	1.14	0.708	0.686	1.07	0.599	1.67	1.06	0.661	0.657	1.08	0.749	0.78	1.01	0.823	0.976	0.905
CEAIEYLESKQ [BTK_Y511_M509I]	0.774	0.738	0.64	1.29	0.631	0.553	0.574	0.835	0.521	1.39	0.485	0.552	1.33	0.461	0.816	0.549
QEKKGYFEDRR [GLUL_Y336]	1.02	0.761	0.952	0.907	0.618	0.577	0.682	0.733	0.821	1	0.906	0.792	0.628	0.605	1.2	0.469
EQYELHCEMGS [CBL_Y371_Y371H]	0.815	0.859	0.611	1.33	0.682	0.63	0.538	0.818	0.915	1.18	0.491	0.498	1.03	0.476	0.82	0.61
RCLKDYGEFEV [GINS1_Y156]	0.979	0.888	0.685	1.1	0.5	0.626	0.399	0.82	1.16	1.13	0.677	0.635	1.45	0.524	1.12	1.19

The next lines start with results.

SH2 binding enrichment (Grb2 SH2)	SH2 binding enrichment (SHP2-C SH2)	SH2 binding enrichment (c-Src SH2)	Sequence	phosphorylation enrichment (AncSZ)	phosphorylation enrichment (EPHB1)	phosphorylation enrichment (EPHB2)	phosphorylation enrichment (FGFR1)	phosphorylation enrichment (FGFR3)	phosphorylation enrichment (Fer (mouse))	phosphorylation enrichment (Fes)	phosphorylation enrichment (Fyn)	phosphorylation enrichment (Hck)	phosphorylation enrichment (Jak2)	phosphorylation enrichment (MERTK)	phosphorylation enrichment (c-Abl (mouse))	phosphorylation enrichment (c-Src)
1.67	1.9	1.81	KIKGRYEKCEP [KRT26_Y119_W118R]	0.808	0.614	0.526	0.562	1.17	0.584	1.13	0.412	0.546	1.37	0.478	1.25	0.579
0.853	0.745	0.68	SDGGCYEQLFV [MC4R_Y41]	1.69	0.764	0.74	0.663	0.837	9.7	1.09	1.32	2.14	0.991	0.806	0.871	1.76
0.717	0.608	0.419	SYCYRYRCAAR [SUMF1_Y344]	0.789	0.309	0.512	0.538	0.448	0.37	0.651	0.484	0.386	0.728	0.549	0.776	0.54
0.776	0.553	0.437	TSESSYFKSLN [NGEF_Y288_A286S_YF]	0.766	0.433	0.37	0.41	0.705	0.436	0.91	0.395	0.455	0.67	0.362	0.636	0.411
1.13	0.725	0.409	RAQIRYAQEHD [NSD1_Y1987_R1984Q]	1.72	0.458	0.575	0.507	0.768	0.56	0.816	0.633	0.667	0.911	0.912	0.889	0.847
0.608	0.58	0.391	YRVAGYETQGG [TIA1_Y383]	0.436	0.329	0.338	0.399	0.352	0.351	0.646	0.378	0.37	0.392	0.324	0.906	0.295
0.952	0.488	0.439	QKDTFYGLRSL [IGSF10_Y126]	0.73	0.488	0.927	0.562	0.562	0.474	1.12	0.498	0.598	1	0.552	0.837	0.807
1.12	3.1	2.23	KALSLYTKLMN [STAM_Y371_E366K]	1.36	0.673	0.774	0.555	0.872	0.588	1.32	0.46	0.537	1.14	0.446	0.605	0.393
0.693	0.812	7.59	NDTAGYFIIGG [SEL1L3_Y399]	1.15	0.547	0.523	1.77	1.34	0.494	1.14	0.582	0.601	6.38	0.834	0.78	0.584
0.667	0.728	1.11	QISSNYDDAMQ [ZNF281_Y531]	0.962	0.665	0.771	0.434	0.703	0.533	0.978	0.348	0.499	0.939	0.845	0.569	0.57
1.38	1.87	0.857	GRVFVYRLSEQ [ITGAE_Y551_YF]	0.81	0.494	0.511	0.553	0.663	0.425	1.02	0.534	0.492	0.927	0.404	0.655	0.585
1.03	0.801	0.679	LTSVKYLLSAT [GSDMC_Y26_P23S]	0.703	0.465	0.566	0.482	0.541	0.406	0.635	0.418	0.466	0.818	0.376	0.437	0.393
1.07	0.761	0.786	TDEYEYDELIV [TGM1_Y136]	1.3	0.588	0.566	0.664	0.805	0.526	1.2	0.57	0.775	0.785	0.436	0.705	0.454
0.93	0.815	0.535	RIAFQYGVTDL [MYBPC3_Y340]	1.41	0.709	0.627	0.45	1.08	0.558	1.28	0.522	0.647	1.47	0.514	0.992	0.879
0.664	0.518	0.55	NNDLCYWVLEL [IARS1_Y434_P437L]	2.47	1.37	1.05	7.77	7.8	1.33	1.88	5.45	4.01	3.65	2.33	1.31	5.34
0.909	0.839	0.413	PRQRRYVYYYS [PTEN_Y174_S170R]	1.05	0.656	1.02	0.753	0.929	0.904	0.683	0.882	0.911	0.979	0.877	0.769	0.728
0.902	0.676	1	HHTNEYEYDEL [TGM1_Y134_D132N]	1.32	0.497	0.585	0.69	0.813	0.736	1.17	0.952	0.489	1.18	0.594	1.58	0.901
1.06	0.682	1.14	HFVDEYDRTIE [KRAS_Y32_P34R]	2.01	0.875	0.805	0.644	0.932	0.794	1.66	0.653	0.701	1.67	0.58	1.36	0.989
0.847	0.46	0.957	QRIHDYFEHRF [HCN4_Y554_YF]	1.06	0.614	0.843	5.67	3.23	0.872	0.656	0.479	0.527	0.575	0.447	0.625	0.496
0.892	0.859	1.14	SVLVPYEPPEV [TP53_Y220_V217L]	1.36	0.651	0.757	0.505	0.899	0.63	1.33	0.555	0.651	1.32	0.463	0.874	0.541
